Experiments:
sCD32A = target: T1, sCD32A (UniProt P12318 34-217, limits assumed); assay: SPR (BIAcore), receptor immobilised
T1 construct: extracellular domain; Negative control surface in SPR; also called control receptor
T1 sequence (looked up): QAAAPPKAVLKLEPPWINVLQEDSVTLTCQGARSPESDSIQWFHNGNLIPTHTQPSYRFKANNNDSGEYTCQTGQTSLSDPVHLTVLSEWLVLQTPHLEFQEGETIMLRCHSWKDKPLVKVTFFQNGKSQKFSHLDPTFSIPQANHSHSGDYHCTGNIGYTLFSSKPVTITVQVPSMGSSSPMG
Procedure: (§1) (A) Binding to sCD16; (B) Binding to sCD32B and (C) Binding to sCD32A. Diabodies were injected at a concentration of 100 NM, and scFv at a concentration of 200 nM, over receptor surfaces at a flow rate of […] for 60 sec.
(§2) sCD16A, sCD32B or sCD32A (negative control) were immobilized on one of the four flow cells (flow cell 2) of a sensor chip surface through amine coupling chemistry (by modification of carboxymethyl groups with mixture of NHS/EDC) such that about 1000 response units (RU) of either receptor was immobilized on the surface. Following this, the unreacted active esters were “capped off” with an injection of 1M Et-NH2.

soluble CD32B (sCD32B) = target: T2, soluble CD32B (sCD32B) (human, UniProt P31994 43-217, biotin where used as the ELISA probe); assay: SPR (BIAcore), receptor immobilised
T2 construct: extracellular domain; also called soluble CD32B ectodomain; sCD32B-biotin
T2 sequence (looked up): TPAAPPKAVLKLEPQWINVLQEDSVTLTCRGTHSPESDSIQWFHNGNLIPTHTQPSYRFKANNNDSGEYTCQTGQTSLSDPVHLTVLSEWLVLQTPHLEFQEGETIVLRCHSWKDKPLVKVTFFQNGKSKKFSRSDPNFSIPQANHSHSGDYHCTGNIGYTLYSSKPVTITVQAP
Procedure: as §1, §2

sCD32B-Ig = target: T3, sCD32B-Ig (UniProt P31994 43-217); assay: sandwich ELISA: sCD32B-Ig coated, diabody, sCD16A-Biotin probe, streptavidin-HRP
T3 construct: extracellular domain; not shown: Ig part of sCD32B-Ig; not described
T3 sequence (looked up): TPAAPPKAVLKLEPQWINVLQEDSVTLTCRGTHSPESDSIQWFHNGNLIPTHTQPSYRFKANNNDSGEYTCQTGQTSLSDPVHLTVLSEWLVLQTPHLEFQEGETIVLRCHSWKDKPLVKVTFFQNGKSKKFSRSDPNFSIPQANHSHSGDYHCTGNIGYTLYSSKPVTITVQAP
Procedure: The plate was then incubated at room temperature for 1 hour.

soluble CD16A (sCD16A) = target: T4, soluble CD16A (sCD16A) (human, UniProt P08637 17-208, biotin or HRP conjugate where used as the ELISA probe); assay: SPR (BIAcore), receptor immobilised, diabody 6.25-200 nM as analyte, bivalent analyte fit
T4 construct: extracellular domain; Printed only as soluble CD16A; also called hCD16A; hCD16
Procedure: Diabodies were injected at concentrations of 6.25-200 nM over receptor surfaces at a flow rate of […] for 180 sec.
as §2

T4 sequence (P08637 17-208): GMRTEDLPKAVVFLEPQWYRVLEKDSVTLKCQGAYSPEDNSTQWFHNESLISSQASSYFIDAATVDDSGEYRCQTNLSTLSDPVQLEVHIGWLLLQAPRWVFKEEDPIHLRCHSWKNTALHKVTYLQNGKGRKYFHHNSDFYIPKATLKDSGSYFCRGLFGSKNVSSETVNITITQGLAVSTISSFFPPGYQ

B1: h3G8 covalent monospecific diabody (CMD) (other)
chain: DIVMTQSPDSLAVSLGERATINCKASQSVDFDGDSFMNWYQQKPGQPPKLLIYTTSNLESGVPDRFSGSGSGTDFTLTISSLQAEDVAVYYCQQSNEDPYTFGQGTKLEIKGGGSGGGGQVTLRESGPALVKPTQTLTLTCTFSGFSLSTSGMGVGWIRQPPGKALEWLAHIWWDDDKRYNPALKSRLTISKDTSKNQVVLTMTNMDPVDTATYYCAQINPAWFAYWGQGTLVTVSSLGGC
notes: Covalent homodimer of construct 3; also called h3G8 CMD; h3G8 diabody
binding result (sCD32A): no binding (tested: 100 nM)
binding result (soluble CD32B (sCD32B)): no binding (tested: 100 nM)
binding result (sCD32B-Ig): no binding (tested: 0.5 µg/ml to 0.001 µg/ml)
Kd (soluble CD16A (sCD16A)): 18 nM

Source: patent US20100174053A1 (published 2010)
